Measurements as given in patent US20180153953A1 (CITY OF HOPE, published 2018).

Target: T1, Mu-type opioid receptor (Homo sapiens) (Homo sapiens, UniProt P35372 1-400)
T1 construct: Endogenous receptor of PANC-1 cells, PANC-1 MCTS, normal pancreatic epithelial cells and patient tissue (fixed cells or cell lysates); also called MOR; mu opioid receptor
Assay: co-immunoprecipitation: lysates of normal pancreatic epithelial cells or PANC-1 cells, IP anti-MOR, blot anti-CXCR4
Source text: FIG. 3A-3D: There is no co-localization between MOR and CXCR4. FIG. 3A. […] Peak centers are shown. FIG. 3B. […] Peak centers are shown. FIG. 3C. Cross-correlation curves with s.e.m show no co-localization between MOR and CXCR4 in PANC-1 cells (diamonds, N=32 regions from 14 cells), PANC-1 MCTS (triangles, N=20 regions from 12 cells), and normal pancreatic epithelial cells (circles, N=21 regions from 13 cells). In all cases no long-range correlations were observed. FIG. 3D. Cell lysates from either normal pancreatic epithelial cells or PANC-1 cells were immunoprecipitated with anti-MOR antibody and immunoblotted with anti-CXCR4 antibody. CXCR4 was not detected in the MOR immunoprecipitate in either cell line.
Co-immunoprecipitation was performed using the co-immunoprecipitation kit (Pierce) per the manufacturer's protocol. Briefly, MOR antibody was immobilized using a coupling resin. PANC-1 or normal pancreatic epithelial cells were lysed using buffer containing 1% Nonidet P-40, 10% glycerol, 50 mM Tris-Cl, pH 7.4, 300 mM NaCl, 1.5 mM MgCl₂, 1 mM CaCl₂ and protease inhibitor tablets (Pierce) similarly as described before (Rozenfeld and Devi, 2007), pre-cleared and added to the antibody coupled resin and incubated with gentle shaking overnight at 4° C. After thorough washes, the protein sample co-immunoprecipitate was eluted and used for Western blotting with SSTR2 or CXCR4 antibodies. […]

T1 sequence (P35372 whole entry): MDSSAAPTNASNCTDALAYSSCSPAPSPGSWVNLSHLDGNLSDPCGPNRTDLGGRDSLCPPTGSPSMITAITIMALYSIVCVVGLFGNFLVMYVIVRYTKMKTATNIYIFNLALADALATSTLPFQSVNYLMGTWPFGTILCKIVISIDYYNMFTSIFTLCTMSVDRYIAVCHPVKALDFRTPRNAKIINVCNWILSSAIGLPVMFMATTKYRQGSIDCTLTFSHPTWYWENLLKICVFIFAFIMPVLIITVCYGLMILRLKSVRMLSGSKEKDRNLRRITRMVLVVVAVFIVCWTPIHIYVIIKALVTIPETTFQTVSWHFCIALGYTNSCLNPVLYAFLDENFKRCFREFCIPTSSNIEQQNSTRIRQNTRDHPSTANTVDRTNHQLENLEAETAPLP

binding result: no binding
B1: C-X-C motif receptor 4 (CXCR4) (receptor, human, UniProt P61073 1-352, looked up)
chain: MEGISIYTSDNYTEEMGSGDYDSMKEPCFREENANFNKIFLPTIYSIIFLTGIVGNGLVILVMGYQKKLRSMTDKYRLHLSVADLLFVITLPFWAVDAVANWYFGNFLCKAVHVIYTVNLYSSVLILAFISLDRYLAIVHATNSQRPRKLLAEKVVYVGVWIPALLLTIPDFIFANVSEADDRYICDRFYPNDLWVVVFQFQHIMVGLILPGIVILSCYCIIISKLSHSKGHQKRKALKTTVILILAFFACWLPYYIGISIDSFILLEIIKQGCEFENTVHKWISITEALAFFHCCLNPILYAFLGAKFKTSAQHALTSVSRGSSLKILSKGKRGGHSSVSTESESSSFHSS
notes: whole, on cells; Endogenous receptor in fixed cells or cell lysates
